In US20230212285A1 one finds Kd data, which are given here for one substance.

Test [1] has as its target human FcγRI, His6-tagged (human) (UniProt P12314). Nature of the test: SPR, 1:1 kinetic. Background: In SPR one partner is held on a chip, and binding of the other changes the refractive index at the surface.
Test [2] deals with human FcγRIIb, His6-tagged (human) (UniProt P31994). Nature of the test: SPR, steady state.
human FcγRIIb, His6-tagged (human), sequence (P31994 43-217 limits assumed): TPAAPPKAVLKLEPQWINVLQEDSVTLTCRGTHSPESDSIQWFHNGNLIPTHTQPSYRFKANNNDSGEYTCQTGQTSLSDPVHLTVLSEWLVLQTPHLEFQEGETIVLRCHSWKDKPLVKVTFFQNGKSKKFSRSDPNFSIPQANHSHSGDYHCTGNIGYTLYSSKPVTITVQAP

human FcγRI, His6-tagged (human), sequence (P12314 16-288 limits assumed): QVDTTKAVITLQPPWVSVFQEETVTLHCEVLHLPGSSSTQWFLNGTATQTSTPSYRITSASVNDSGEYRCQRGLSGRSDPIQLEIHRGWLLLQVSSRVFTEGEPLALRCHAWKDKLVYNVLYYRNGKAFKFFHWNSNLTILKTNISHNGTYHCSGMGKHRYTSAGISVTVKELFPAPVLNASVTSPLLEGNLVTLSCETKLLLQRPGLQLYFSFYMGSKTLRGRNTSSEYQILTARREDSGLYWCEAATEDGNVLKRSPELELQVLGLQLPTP

On to isotype control human IgG4 (antibody), for which the Kd (as a rule, the equilibrium constant for the complex coming apart) in test [1] turned out to be 0.00925 µM; in test [2] it was 23.1 µM.
